Source: PMC3797752 (2013)

Molecular target: wild-type SF162 gp120 (HIV-1 SF162)
Experiment: SPR

B1: mAb VRC01 (antibody, V domains shown)
VH: QVQLVQSGGQMKKPGESMRISCRASGYEFIDCTLNWIRLAPGKRPEWMGWLKPRGGAVNYARPLQGRVTMTRDVYSDTAFLELRSLTVDDTAVYFCTRGKNCDYNWDFEHWGRGTPVIVSS
VL: EIVLTQSPGTLSLSPGETAIISCRTSQYGSLAWYQQRPGQAPRLVIYSGSTRAAGIPDRFSGSRWGPDYNLTISNLESGDFGVYYCQQYEFFGQGTKVQVD
Kd: 2.08 nM
